Source: US20210324028A1 (Pfizer, published 2021)

T1: human IL-2Rβ (human, UniProt P14784 27-240, limits assumed)
T1 construct: also called hIL-2Rβ; IL-2 receptor beta
T1 sequence (looked up): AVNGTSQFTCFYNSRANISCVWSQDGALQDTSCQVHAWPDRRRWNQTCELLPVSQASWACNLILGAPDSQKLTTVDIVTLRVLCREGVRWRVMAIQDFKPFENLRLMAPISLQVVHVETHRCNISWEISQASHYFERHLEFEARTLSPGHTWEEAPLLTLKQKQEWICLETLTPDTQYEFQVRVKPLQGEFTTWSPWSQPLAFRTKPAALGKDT


Key:
[1] = biological target: T2, human IL-15Rα (human, UniProt Q13261 31-205, limits assumed); experiment: SPR, steady state
T2 construct: also called hIL-15Rα; IL-15 receptor alpha
T2 sequence (Q13261 31-205 limits assumed): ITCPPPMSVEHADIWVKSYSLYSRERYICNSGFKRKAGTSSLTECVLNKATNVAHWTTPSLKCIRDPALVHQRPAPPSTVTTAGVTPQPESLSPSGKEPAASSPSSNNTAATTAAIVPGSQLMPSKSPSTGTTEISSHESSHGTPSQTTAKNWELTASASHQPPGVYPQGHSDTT

[2] = biological target: T1, human IL-2Rβ; experiment: SPR, steady state

| Kd [1] [nM] | Kd [2] [nM] | Binder |
| --- | --- | --- |
| 151 | 273 | hIL-15 V49R/D30A (ligand) NWVNVISDLKKIEDLIQSMHIDATLYTESAVHPSCKVTAMKCFLLELQRISLESGDASIHDTVENLIILANNSLSSNGNVTESGCKECEELEEKNIKEFLQSFVHIVQMFINTGGGGSGHHHHHHHHGGGLNDIFEAQKIEWHE |
| 356 |  | hIL-15 V49R/N4P (ligand) NWVPVISDLKKIEDLIQSMHIDATLYTESDVHPSCKVTAMKCFLLELQRISLESGDASIHDTVENLIILANNSLSSNGNVTESGCKECEELEEKNIKEFLQSFVHIVQMFINTGGGGSGHHHHHHHHGGGLNDIFEAQKIEWHE |
| 44 |  | hIL-15 V49R/L69N (ligand) NWVNVISDLKKIEDLIQSMHIDATLYTESDVHPSCKVTAMKCFLLELQRISLESGDASIHDTVENLIINANNSLSSNGNVTESGCKECEELEEKNIKEFLQSFVHIVQMFINTGGGGSGHHHHHHHHGGGLNDIFEAQKIEWHE |
|  | 376 | hIL-15 V49R/H32W (ligand) NWVNVISDLKKIEDLIQSMHIDATLYTESDVWPSCKVTAMKCFLLELQRISLESGDASIHDTVENLIILANNSLSSNGNVTESGCKECEELEEKNIKEFLQSFVHIVQMFINTGGGGSGHHHHHHHHGGGLNDIFEAQKIEWHE |
|  | 247 | hIL-15 V49R/N4F (ligand) NWVFVISDLKKIEDLIQSMHIDATLYTESDVHPSCKVTAMKCFLLELQRISLESGDASIHDTVENLIILANNSLSSNGNVTESGCKECEELEEKNIKEFLQSFVHIVQMFINTGGGGSGHHHHHHHHGGGLNDIFEAQKIEWHE |
|  | 180 | hIL-15 V49R/K11M (ligand) NWVNVISDLKMIEDLIQSMHIDATLYTESDVHPSCKVTAMKCFLLELQRISLESGDASIHDTVENLIILANNSLSSNGNVTESGCKECEELEEKNIKEFLQSFVHIVQMFINTGGGGSGHHHHHHHHGGGLNDIFEAQKIEWHE |
| 132 |  | hIL-15 V49R/I68Q (ligand) NWVNVISDLKKIEDLIQSMHIDATLYTESDVHPSCKVTAMKCFLLELQRISLESGDASIHDTVENLIQLANNSLSSNGNVTESGCKECEELEEKNIKEFLQSFVHIVQMFINTGGGGSGHHHHHHHHGGGLNDIFEAQKIEWHE |
| 158 | 351 | hIL-15 V49R/D30K (ligand) NWVNVISDLKKIEDLIQSMHIDATLYTESKVHPSCKVTAMKCFLLELQRISLESGDASIHDTVENLIILANNSLSSNGNVTESGCKECEELEEKNIKEFLQSFVHIVQMFINTGGGGSGHHHHHHHHGGGLNDIFEAQKIEWHE |
| 122 |  | hIL-15 V49R/I68E (ligand) NWVNVISDLKKIEDLIQSMHIDATLYTESDVHPSCKVTAMKCFLLELQRISLESGDASIHDTVENLIELANNSLSSNGNVTESGCKECEELEEKNIKEFLQSFVHIVQMFINTGGGGSGHHHHHHHHGGGLNDIFEAQKIEWHE |
| 106 |  | hIL-15 V49R/L69F (ligand) NWVNVISDLKKIEDLIQSMHIDATLYTESDVHPSCKVTAMKCFLLELQRISLESGDASIHDTVENLIIFANNSLSSNGNVTESGCKECEELEEKNIKEFLQSFVHIVQMFINTGGGGSGHHHHHHHHGGGLNDIFEAQKIEWHE |
|  | 186 | hIL-15 V49R/H32T (ligand) NWVNVISDLKKIEDLIQSMHIDATLYTESDVTPSCKVTAMKCFLLELQRISLESGDASIHDTVENLIILANNSLSSNGNVTESGCKECEELEEKNIKEFLQSFVHIVQMFINTGGGGSGHHHHHHHHGGGLNDIFEAQKIEWHE |
| 94 | 163 | hIL-15 V49R/D30N (ligand) NWVNVISDLKKIEDLIQSMHIDATLYTESNVHPSCKVTAMKCFLLELQRISLESGDASIHDTVENLIILANNSLSSNGNVTESGCKECEELEEKNIKEFLQSFVHIVQMFINTGGGGSGHHHHHHHHGGGLNDIFEAQKIEWHE |
| 54.5 |  | hIL-15 V49R/L69H (ligand) NWVNVISDLKKIEDLIQSMHIDATLYTESDVHPSCKVTAMKCFLLELQRISLESGDASIHDTVENLIIHANNSLSSNGNVTESGCKECEELEEKNIKEFLQSFVHIVQMFINTGGGGSGHHHHHHHHGGGLNDIFEAQKIEWHE |
| 124 | 165 | hIL-15 V49R/D30E (ligand) NWVNVISDLKKIEDLIQSMHIDATLYTESEVHPSCKVTAMKCFLLELQRISLESGDASIHDTVENLIILANNSLSSNGNVTESGCKECEELEEKNIKEFLQSFVHIVQMFINTGGGGSGHHHHHHHHGGGLNDIFEAQKIEWHE |
| ~88.6 |  | hIL-15 V49R/N4T (ligand) NWVTVISDLKKIEDLIQSMHIDATLYTESDVHPSCKVTAMKCFLLELQRISLESGDASIHDTVENLIILANNSLSSNGNVTESGCKECEELEEKNIKEFLQSFVHIVQMFINTGGGGSGHHHHHHHHGGGLNDIFEAQKIEWHE |
| 93.7 |  | hIL-15 V49R/I68W (ligand) NWVNVISDLKKIEDLIQSMHIDATLYTESDVHPSCKVTAMKCFLLELQRISLESGDASIHDTVENLIWLANNSLSSNGNVTESGCKECEELEEKNIKEFLQSFVHIVQMFINTGGGGSGHHHHHHHHGGGLNDIFEAQKIEWHE |
| 137 |  | hIL-15 V49R/L69Y (ligand) NWVNVISDLKKIEDLIQSMHIDATLYTESDVHPSCKVTAMKCFLLELQRISLESGDASIHDTVENLIIYANNSLSSNGNVTESGCKECEELEEKNIKEFLQSFVHIVQMFINTGGGGSGHHHHHHHHGGGLNDIFEAQKIEWHE |
| ~43.3 |  | hIL-15 V49R/L69Q (ligand) NWVNVISDLKKIEDLIQSMHIDATLYTESDVHPSCKVTAMKCFLLELQRISLESGDASIHDTVENLIIQANNSLSSNGNVTESGCKECEELEEKNIKEFLQSFVHIVQMFINTGGGGSGHHHHHHHHGGGLNDIFEAQKIEWHE |
| 101 |  | hIL-15 V49R/I68G (ligand) NWVNVISDLKKIEDLIQSMHIDATLYTESDVHPSCKVTAMKCFLLELQRISLESGDASIHDTVENLIGLANNSLSSNGNVTESGCKECEELEEKNIKEFLQSFVHIVQMFINTGGGGSGHHHHHHHHGGGLNDIFEAQKIEWHE |
|  | 321 | hIL-15 V49R/D30W (ligand) NWVNVISDLKKIEDLIQSMHIDATLYTESWVHPSCKVTAMKCFLLELQRISLESGDASIHDTVENLIILANNSLSSNGNVTESGCKECEELEEKNIKEFLQSFVHIVQMFINTGGGGSGHHHHHHHHGGGLNDIFEAQKIEWHE |
| > 500 |  | hIL-15 V49R/S7P (ligand) NWVNVIPDLKKIEDLIQSMHIDATLYTESDVHPSCKVTAMKCFLLELQRISLESGDASIHDTVENLIILANNSLSSNGNVTESGCKECEELEEKNIKEFLQSFVHIVQMFINTGGGGSGHHHHHHHHGGGLNDIFEAQKIEWHE |
| 121 | 149 | hIL-15 V49R/D30H (ligand) NWVNVISDLKKIEDLIQSMHIDATLYTESHVHPSCKVTAMKCFLLELQRISLESGDASIHDTVENLIILANNSLSSNGNVTESGCKECEELEEKNIKEFLQSFVHIVQMFINTGGGGSGHHHHHHHHGGGLNDIFEAQKIEWHE |
| 56.1 |  | hIL-15 V49R/N4R (ligand) NWVRVISDLKKIEDLIQSMHIDATLYTESDVHPSCKVTAMKCFLLELQRISLESGDASIHDTVENLIILANNSLSSNGNVTESGCKECEELEEKNIKEFLQSFVHIVQMFINTGGGGSGHHHHHHHHGGGLNDIFEAQKIEWHE |
| 197 | 201 | hIL-15 V49R/D30I (ligand) NWVNVISDLKKIEDLIQSMHIDATLYTESIVHPSCKVTAMKCFLLELQRISLESGDASIHDTVENLIILANNSLSSNGNVTESGCKECEELEEKNIKEFLQSFVHIVQMFINTGGGGSGHHHHHHHHGGGLNDIFEAQKIEWHE |
|  | 162 | hIL-15 V49R/K11F (ligand) NWVNVISDLKFIEDLIQSMHIDATLYTESDVHPSCKVTAMKCFLLELQRISLESGDASIHDTVENLIILANNSLSSNGNVTESGCKECEELEEKNIKEFLQSFVHIVQMFINTGGGGSGHHHHHHHHGGGLNDIFEAQKIEWHE |
| 166 | 213 | hIL-15 V49R/D30F (ligand) NWVNVISDLKKIEDLIQSMHIDATLYTESFVHPSCKVTAMKCFLLELQRISLESGDASIHDTVENLIILANNSLSSNGNVTESGCKECEELEEKNIKEFLQSFVHIVQMFINTGGGGSGHHHHHHHHGGGLNDIFEAQKIEWHE |
| 142 | 238 | hIL-15 V49R/D30M (ligand) NWVNVISDLKKIEDLIQSMHIDATLYTESMVHPSCKVTAMKCFLLELQRISLESGDASIHDTVENLIILANNSLSSNGNVTESGCKECEELEEKNIKEFLQSFVHIVQMFINTGGGGSGHHHHHHHHGGGLNDIFEAQKIEWHE |
| 237 | 277 | hIL-15 V49R/D30L (ligand) NWVNVISDLKKIEDLIQSMHIDATLYTESLVHPSCKVTAMKCFLLELQRISLESGDASIHDTVENLIILANNSLSSNGNVTESGCKECEELEEKNIKEFLQSFVHIVQMFINTGGGGSGHHHHHHHHGGGLNDIFEAQKIEWHE |
| 111 |  | hIL-15 V49R/L69R (ligand) NWVNVISDLKKIEDLIQSMHIDATLYTESDVHPSCKVTAMKCFLLELQRISLESGDASIHDTVENLIIRANNSLSSNGNVTESGCKECEELEEKNIKEFLQSFVHIVQMFINTGGGGSGHHHHHHHHGGGLNDIFEAQKIEWHE |
